Measurements reported in article PMC10076317, “Extended DNA threading through a dual-engine motor module of the activating signal co-integrator 1 complex” (Nature Communications, 2023).

Legend:
ASCC3HR = ASCC3HR (human, UniProt Q8N3C0 401-2202); test: MST; no ATP; Hill fit EC50; MST: 20 mM HEPES-NaOH pH 7.5, 300 mM NaCl, 5% glycerol, 1 mM DTT, room temperature, 50 nM final Cy5-T48; UV cross-linking: 50 mM HEPES-NaOH pH 7.5, 80 mM NaCl; details: protein: recombinant; tags: N-terminal His10, TEV-cleaved; label: 5'-Cy5; single strand
Sequence of ASCC3HR (Q8N3C0 401-2202): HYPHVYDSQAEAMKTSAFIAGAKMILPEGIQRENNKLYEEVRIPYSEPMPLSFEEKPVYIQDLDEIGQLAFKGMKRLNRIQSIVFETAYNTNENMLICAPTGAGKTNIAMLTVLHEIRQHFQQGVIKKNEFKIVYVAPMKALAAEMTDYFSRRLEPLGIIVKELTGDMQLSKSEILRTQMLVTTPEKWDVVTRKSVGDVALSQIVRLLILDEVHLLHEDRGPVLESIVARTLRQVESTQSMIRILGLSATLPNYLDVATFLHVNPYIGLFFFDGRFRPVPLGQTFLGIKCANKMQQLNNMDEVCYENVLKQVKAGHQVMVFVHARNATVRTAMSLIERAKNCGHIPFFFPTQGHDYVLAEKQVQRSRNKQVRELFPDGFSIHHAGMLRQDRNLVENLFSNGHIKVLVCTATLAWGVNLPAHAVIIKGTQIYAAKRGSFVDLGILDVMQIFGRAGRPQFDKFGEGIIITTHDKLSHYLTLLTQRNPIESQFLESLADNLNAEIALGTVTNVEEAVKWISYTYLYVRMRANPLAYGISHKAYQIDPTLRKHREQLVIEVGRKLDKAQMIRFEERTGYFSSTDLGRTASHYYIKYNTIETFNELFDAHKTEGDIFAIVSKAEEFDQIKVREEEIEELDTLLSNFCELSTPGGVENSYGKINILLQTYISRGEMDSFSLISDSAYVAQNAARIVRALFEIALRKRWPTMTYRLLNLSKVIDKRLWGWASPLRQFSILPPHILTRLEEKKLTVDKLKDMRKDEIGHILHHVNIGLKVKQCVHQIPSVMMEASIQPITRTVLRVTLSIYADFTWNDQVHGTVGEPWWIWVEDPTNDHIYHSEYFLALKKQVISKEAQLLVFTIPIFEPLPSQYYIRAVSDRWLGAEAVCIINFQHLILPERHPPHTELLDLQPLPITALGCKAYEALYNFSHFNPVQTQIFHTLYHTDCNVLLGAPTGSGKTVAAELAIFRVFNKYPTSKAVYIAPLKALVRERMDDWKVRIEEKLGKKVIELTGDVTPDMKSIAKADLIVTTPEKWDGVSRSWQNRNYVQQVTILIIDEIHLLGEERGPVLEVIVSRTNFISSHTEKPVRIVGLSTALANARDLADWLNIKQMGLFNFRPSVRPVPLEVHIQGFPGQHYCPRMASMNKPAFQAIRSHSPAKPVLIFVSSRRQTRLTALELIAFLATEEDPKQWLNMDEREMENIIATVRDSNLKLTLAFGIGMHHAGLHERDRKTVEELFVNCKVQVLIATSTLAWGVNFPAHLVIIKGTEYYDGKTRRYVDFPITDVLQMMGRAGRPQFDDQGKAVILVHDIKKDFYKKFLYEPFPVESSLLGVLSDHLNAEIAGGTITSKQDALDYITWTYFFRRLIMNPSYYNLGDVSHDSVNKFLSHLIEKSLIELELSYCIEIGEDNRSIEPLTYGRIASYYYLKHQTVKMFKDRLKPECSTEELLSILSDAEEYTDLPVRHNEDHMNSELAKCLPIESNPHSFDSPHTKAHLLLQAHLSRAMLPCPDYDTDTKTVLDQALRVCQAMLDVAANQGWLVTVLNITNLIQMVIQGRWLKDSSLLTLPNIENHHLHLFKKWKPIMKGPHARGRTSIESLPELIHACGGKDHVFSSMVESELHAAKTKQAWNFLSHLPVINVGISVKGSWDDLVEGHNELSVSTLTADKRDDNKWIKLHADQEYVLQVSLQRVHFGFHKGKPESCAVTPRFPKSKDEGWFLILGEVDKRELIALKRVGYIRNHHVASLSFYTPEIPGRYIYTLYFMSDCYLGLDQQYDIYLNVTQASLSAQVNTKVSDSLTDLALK

ASCC3HR;TRIP4 1-230 = ASCC3HR;TRIP4 1-230 (human;human?, UniProt Q8N3C0;Q15650 401-2202;1-230, |); test: as above; details: protein: recombinant;recombinant; tags: N-terminal His10, TEV-cleaved;N-terminal His6, TEV-cleaved; copies: 1;1; label: 5'-Cy5; single strand
Sequence of ASCC3HR;TRIP4 1-230 (Q8N3C0 401-2202, one chain of several): as the sequence (Q8N3C0 401-2202) above

TRIP4 = target: T1, TRIP4 (UniProt Q15650 1-581); test: as above; details: protein: recombinant; tags: N-terminal His6, TEV-cleaved; label: 5'-Cy5; single strand
T1 sequence: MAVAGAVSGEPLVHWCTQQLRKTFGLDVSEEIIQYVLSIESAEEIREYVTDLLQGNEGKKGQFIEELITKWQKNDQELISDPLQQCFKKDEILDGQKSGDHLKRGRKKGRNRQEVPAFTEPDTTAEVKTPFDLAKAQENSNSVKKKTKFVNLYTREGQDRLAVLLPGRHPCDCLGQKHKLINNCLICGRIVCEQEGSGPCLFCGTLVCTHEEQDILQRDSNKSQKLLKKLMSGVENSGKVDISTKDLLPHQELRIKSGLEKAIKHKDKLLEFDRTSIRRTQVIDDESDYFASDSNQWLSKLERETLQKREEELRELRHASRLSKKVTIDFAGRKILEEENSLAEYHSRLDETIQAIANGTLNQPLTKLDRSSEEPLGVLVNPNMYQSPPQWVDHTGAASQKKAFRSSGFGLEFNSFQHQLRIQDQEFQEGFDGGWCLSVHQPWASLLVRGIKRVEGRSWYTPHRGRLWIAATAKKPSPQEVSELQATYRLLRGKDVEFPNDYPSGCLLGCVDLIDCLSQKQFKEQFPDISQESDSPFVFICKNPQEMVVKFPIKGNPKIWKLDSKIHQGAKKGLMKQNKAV

ASCC3HR;TRIP4 = ASCC3HR;TRIP4 (human;human?, UniProt Q8N3C0;Q15650 401-2202;1-581, |); test: as above; details: protein: recombinant;recombinant; tags: N-terminal His10, TEV-cleaved;N-terminal His6, TEV-cleaved; copies: 1;1; label: 5'-Cy5; single strand
Sequence of ASCC3HR;TRIP4 (Q8N3C0 401-2202, one chain of several): as the sequence (Q8N3C0 401-2202) above

[1] = target: T2, ASCC3 helicase region (ASCC3^HR, residues 401-2202) (human, UniProt Q8N3C0 401-2202); test: cell-based or functional assay
T2 sequence (Q8N3C0 401-2202): as the sequence (Q8N3C0 401-2202) above

[2] = target: T2, ASCC3 helicase region (ASCC3^HR, …); test: SEC; analytical SEC, Superdex 200 3.2/300; 20 mM HEPES-NaOH pH 7.5, 250 mM NaCl, 5% glycerol, 1 mM DTT; 100 pmol ASCC3^HR mixed with other proteins in two to tenfold molar excess in 80 µl, 30 min on ice; fractions by SDS-PAGE; details: both partners purified
[3] = target: T2, ASCC3 helicase region (ASCC3^HR, …); test: SEC; analytical SEC for competitive binding, Superdex 200 3.2/300; 120 pmol ASCC3^HR with 360 pmol TRIP4 and/or ALKBH3 in 100 µl, 30 min on ice; fractions by SDS-PAGE, Coomassie; details: both partners purified

TTTTTTTTTTTTTTTTTTTTTTTTTTTTTTTTTTTTTTTTTTTTTTTT (ssDNA) [T48 (Cy5)]
apparent K (half saturation) (ASCC3HR): 551 ± 194 nM
apparent K (half saturation) (ASCC3HR;TRIP4 1-230): 468 ± 63 nM
apparent K (half saturation) (TRIP4): 903 ± 24 nM
apparent K (half saturation) (ASCC3HR;TRIP4): 53 ± 3 nM

B1: TRIP4, full length, co-produced with ASCC3^HR in insect cells (natural protein, human, UniProt Q15650 1-581, looked up)
chain: T1 sequence
amplitude-weighted DNA unwinding rate constant (kuaw) of ASCC3^HR with TRIP4, stopped-flow fluorescence, no trap (ASCC3^HR alone 0.024 s^-1; stimulated 2.3-fold) [1]: 0.054 s⁻¹

B2: TRIP4^152-230 (domain or fragment, human, UniProt Q15650 152-230, looked up)
chain: LYTREGQDRLAVLLPGRHPCDCLGQKHKLINNCLICGRIVCEQEGSGPCLFCGTLVCTHEEQDILQRDSNKSQKLLKKL
notes: TRIP4, human, residues 152-230 (ZnF domain); also called ZnF domain alone; source: E. coli BL21 (DE3), purified (Ni-NTA, TEV, SEC); not shown: His6, N-terminal, cleaved
binding result [2]: binds

B3: ALKBH3 (alpha-ketoglutarate/iron-dependent dioxygenase, DNA/RNA dealkylase), full length (enzyme, human, UniProt Q96Q83 1-286, looked up)
chain: MEEKRRRARVQGAWAAPVKSQAIAQPATTAKSHLHQKPGQTWKNKEHHLSDREFVFKEPQQVVRRAPEPRVIDREGVYEISLSPTGVSRVCLYPGFVDVKEADWILEQLCQDVPWKQRTGIREDITYQQPRLTAWYGELPYTYSRITMEPNPHWHPVLRTLKNRIEENTGHTFNSLLCNLYRNEKDSVDWHSDDEPSLGRCPIIASLSFGATRTFEMRKKPPPEENGDYTYVERVKIPLDHGTLLIMEGATQADWQHRVPKEYHSREPRVNLTFRTVYPDPRGAPW
notes: ALKBH3, human, full length, amplified from a cDNA library of human HeLa cells, pETM-11; source: E. coli C2566, purified (Ni-NTA, TEV, heparin, SEC); not shown: His6, N-terminal, cleaved
binding result [3]: binds

B4: TRIP4^152-581 (domain or fragment, human, UniProt Q15650 152-581, looked up)
chain: LYTREGQDRLAVLLPGRHPCDCLGQKHKLINNCLICGRIVCEQEGSGPCLFCGTLVCTHEEQDILQRDSNKSQKLLKKLMSGVENSGKVDISTKDLLPHQELRIKSGLEKAIKHKDKLLEFDRTSIRRTQVIDDESDYFASDSNQWLSKLERETLQKREEELRELRHASRLSKKVTIDFAGRKILEEENSLAEYHSRLDETIQAIANGTLNQPLTKLDRSSEEPLGVLVNPNMYQSPPQWVDHTGAASQKKAFRSSGFGLEFNSFQHQLRIQDQEFQEGFDGGWCLSVHQPWASLLVRGIKRVEGRSWYTPHRGRLWIAATAKKPSPQEVSELQATYRLLRGKDVEFPNDYPSGCLLGCVDLIDCLSQKQFKEQFPDISQESDSPFVFICKNPQEMVVKFPIKGNPKIWKLDSKIHQGAKKGLMKQNKAV
notes: source: E. coli BL21 (DE3), purified (Ni-NTA, TEV, heparin, SEC); not shown: His6, N-terminal, cleaved
binding result [2]: binds
